From patent publication CN1652821A (dated 2005)

How the values were obtained:
LNCaP细胞上表达的PSMA = biological target: T1, LNCaP细胞上表达的PSMA (human, UniProt Q04609 1-750); experiment: Scatchard analysis, 111In-DOTA-labelled antibody binding to a fixed number of LNCaP cells
T1 construct: whole, on cells; Endogenous PSMA of LNCaP cells; also used for the LNCaP membrane-fraction ELISA; also called PSMA on LNCaP cells; LNCaP细胞膜

细菌表达的含有PSMA氨基酸1-173的融合蛋白 = biological target: T2, 细菌表达的含有PSMA氨基酸1-173的融合蛋白 (human, UniProt Q04609 1-173); experiment: solid-phase ELISA on bacterially expressed PSMA fragment fusion proteins
T2 construct: Bacterially expressed fusion protein

[1] = biological target: T3, 细菌表达的含有PSMA氨基酸134-437的融合蛋白 (human, UniProt Q04609 134-437); experiment: as above
T3 construct: Bacterially expressed fusion protein

[2] = biological target: T4, 细菌表达的含有PSMA氨基酸438-750的融合蛋白 (human, UniProt Q04609 438-750); experiment: as above
T4 construct: range 438-750; Bacterially expressed fusion protein; also called PSMA 438-750 fusion protein
T4 sequence (Q04609 438-750): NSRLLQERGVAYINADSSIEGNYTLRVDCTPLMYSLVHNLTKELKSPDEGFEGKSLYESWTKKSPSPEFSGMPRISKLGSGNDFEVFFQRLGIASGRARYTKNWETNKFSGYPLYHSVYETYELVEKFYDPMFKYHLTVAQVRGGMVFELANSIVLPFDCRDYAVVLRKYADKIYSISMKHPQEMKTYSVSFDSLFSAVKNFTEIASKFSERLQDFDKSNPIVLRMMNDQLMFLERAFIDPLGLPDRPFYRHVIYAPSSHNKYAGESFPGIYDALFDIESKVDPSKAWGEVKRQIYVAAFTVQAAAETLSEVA

T3 sequence (Q04609 134-437): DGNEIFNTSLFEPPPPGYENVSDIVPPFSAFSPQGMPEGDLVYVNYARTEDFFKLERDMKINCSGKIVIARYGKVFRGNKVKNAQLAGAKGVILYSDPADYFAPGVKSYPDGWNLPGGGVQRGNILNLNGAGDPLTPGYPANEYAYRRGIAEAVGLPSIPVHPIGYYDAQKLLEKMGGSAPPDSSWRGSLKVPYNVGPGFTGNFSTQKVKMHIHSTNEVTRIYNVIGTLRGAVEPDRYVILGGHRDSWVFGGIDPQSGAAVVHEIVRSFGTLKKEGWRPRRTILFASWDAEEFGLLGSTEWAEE
T2 sequence (Q04609 1-173): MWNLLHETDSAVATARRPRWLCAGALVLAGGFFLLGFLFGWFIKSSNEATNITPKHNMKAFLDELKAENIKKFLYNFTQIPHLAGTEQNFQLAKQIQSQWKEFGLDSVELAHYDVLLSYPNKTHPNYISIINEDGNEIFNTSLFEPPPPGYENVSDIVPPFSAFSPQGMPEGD
T1 sequence (Q04609 whole entry): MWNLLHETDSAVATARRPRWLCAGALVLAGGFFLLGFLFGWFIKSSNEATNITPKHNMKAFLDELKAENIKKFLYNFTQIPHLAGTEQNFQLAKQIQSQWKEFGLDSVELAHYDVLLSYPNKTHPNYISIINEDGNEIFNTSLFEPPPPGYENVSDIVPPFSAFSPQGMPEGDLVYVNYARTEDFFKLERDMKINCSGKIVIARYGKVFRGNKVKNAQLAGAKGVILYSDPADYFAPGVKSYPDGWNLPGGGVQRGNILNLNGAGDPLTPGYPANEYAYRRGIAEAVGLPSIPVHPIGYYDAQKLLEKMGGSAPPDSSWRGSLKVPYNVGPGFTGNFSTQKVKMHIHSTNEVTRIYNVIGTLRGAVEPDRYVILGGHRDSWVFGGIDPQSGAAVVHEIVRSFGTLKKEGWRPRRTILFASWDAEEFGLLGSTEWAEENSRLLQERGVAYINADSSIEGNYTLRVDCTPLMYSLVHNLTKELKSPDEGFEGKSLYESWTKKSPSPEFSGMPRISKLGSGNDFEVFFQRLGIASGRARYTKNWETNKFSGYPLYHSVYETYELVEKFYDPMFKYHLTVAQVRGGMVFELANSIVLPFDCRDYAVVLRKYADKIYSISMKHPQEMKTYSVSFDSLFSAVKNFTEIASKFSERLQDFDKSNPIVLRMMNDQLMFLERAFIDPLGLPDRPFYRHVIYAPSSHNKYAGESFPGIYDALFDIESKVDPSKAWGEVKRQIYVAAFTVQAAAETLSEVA

| Binder | Kd (LNCaP细胞上表达的PSMA) | binding result (细菌表达的含有PSMA氨基酸1-173的融合蛋白) | binding result [1] | binding result [2] |
| --- | --- | --- | --- | --- |
| 人单克隆抗体(HuMAb)4A3 (antibody, V domains shown, Human IgG1 kappa (γ1,κ) from a hybridoma of HuMAb mouse #17018) VH: EVQLVQSGAEVKKPGESLKISCKGSGYSFTSYWIGWARQMPGKGLEWMGIIYPGDSDTRYSPSFQGQVTISADKSISTAYLQWSSLKASDTAMYYCSAANSSHWYFDLWGRGTLVTVSS VL: EIVLTQSPATLSLSPGERATLSCRASQSVSSYLAWFQQKPGQAPRLLIYDASNRATGIPARFSGSGSGTDFTLTISSLEPEDFAVYYCQQRSNWLMYTFGQGTKLEIK |  | no binding | no binding | no binding |
| 人单克隆抗体(HuMAb)7F12 (antibody, V domains shown, Human IgG1 kappa (γ1,κ) from a hybridoma of HuMAb mouse #17018) VH: AVQLVQSGAEVKKPGESLKISCKGSGYSFTSFWIGWARQMPGKGLEWMGIIYPGDSDTRYSPSFQGQVTISADKSISTAYLQWSSLKASDTAMYYCATANSSFWNFDLWGRGTLVTVSS VL: EIVLTQSPATLSLSPGERATLSCRASQSVSSYLAWYQQKPGQAPRLLIYDASNRATGIPARFSGSGSGTDFTLTISSLEPEDFAVYYCQQRSNWLMYTFGQGTKLEIK |  | no binding | no binding | no binding |

Now from value to binder:

| Kd (LNCaP细胞上表达的PSMA) | binding result (细菌表达的含有PSMA氨基酸1-173的融合蛋白) | binding result [1] | binding result [2] | Binder |
| --- | --- | --- | --- | --- |
| 0.5 nM |  |  |  | DOTA-标记的4A3 (antibody, IgG1, V domains shown, DOTA coupled through one carboxyl group to protein amino groups, sites not stated; 111In chelated in the Scatchard study, 4A3 IgG1 kappa conjugated with DOTA; also called DOTA-4A3; 111 In-DOTA-标记抗体 4A3) VH: EVQLVQSGAEVKKPGESLKISCKGSGYSFTSYWIGWARQMPGKGLEWMGIIYPGDSDTRYSPSFQGQVTISADKSISTAYLQWSSLKASDTAMYYCSAANSSHWYFDLWGRGTLVTVSS VL: EIVLTQSPATLSLSPGERATLSCRASQSVSSYLAWFQQKPGQAPRLLIYDASNRATGIPARFSGSGSGTDFTLTISSLEPEDFAVYYCQQRSNWLMYTFGQGTKLEIK |
| 0.5 nM |  |  |  | DOTA-标记的7F12 (antibody, IgG1, V domains shown, DOTA coupled through one carboxyl group to protein amino groups, sites not stated; 111In chelated in the Scatchard study, 7F12 IgG1 kappa conjugated with DOTA; also called DOTA-7F12; 111 In-DOTA-标记抗体 7F12) VH: AVQLVQSGAEVKKPGESLKISCKGSGYSFTSFWIGWARQMPGKGLEWMGIIYPGDSDTRYSPSFQGQVTISADKSISTAYLQWSSLKASDTAMYYCATANSSFWNFDLWGRGTLVTVSS VL: EIVLTQSPATLSLSPGERATLSCRASQSVSSYLAWYQQKPGQAPRLLIYDASNRATGIPARFSGSGSGTDFTLTISSLEPEDFAVYYCQQRSNWLMYTFGQGTKLEIK |
